Assay results published in article PMC5725467, “Elongated Hypocotyl 5-Homolog (HYH) Negatively Regulates Expression of the Ambient Temperature-Responsive MicroRNA Gene MIR169”.

T1: HYH.2-His (HYH splice isoform 2) (Arabidopsis thaliana, UniProt Q8W191 1-149)
T1 sequence: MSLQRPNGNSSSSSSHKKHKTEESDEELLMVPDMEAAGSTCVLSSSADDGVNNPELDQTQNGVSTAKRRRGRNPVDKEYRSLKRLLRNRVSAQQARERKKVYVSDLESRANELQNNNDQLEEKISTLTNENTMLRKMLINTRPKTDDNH

B1: miR169a G-box-like, unlabeled competitor (dsDNA)
DNA 1: TGTACGGCCACGCAAAAGTGACCTAC
DNA 2: GTAGGTCACTTTTGCGTGGCCGTACA
B2: miR169a G-box-like (G) (dsDNA)
DNA 1: TGTACGGCCACGCAAAAGTGACCTAC
DNA 2: GTAGGTCACTTTTGCGTGGCCGTACA
B3: miR169a NC1 (dsDNA)
DNA 1: ATCTTCTGTTTAACAACATATG
DNA 2: CATATGTTGTTAAACAGAAGAT

Tests used:
[1] = target: T1, HYH.2-His (HYH splice isoform 2); assay: competition; 100x, 400x, 1600x molar excess over labeled N1; gradual decrease of shift; EMSA: LightShift Chemiluminescent EMSA Kit (manufacturer's instructions), 100 ng HYH.2-His, room temperature 30 min, 8% native polyacrylamide gel; buffer, salt; settings: protein: recombinant; tags: His (pET28a+); chain copies: 2; label: none; blunt
[2] = target: T1, HYH.2-His (HYH splice isoform 2); assay: EMSA; 100 ng protein; EMSA: LightShift Chemiluminescent EMSA Kit (manufacturer's instructions), 100 ng HYH.2-His, room temperature 30 min, 8% native polyacrylamide gel; buffer, salt; settings: protein: recombinant; tags: His (pET28a+); chain copies: 2; label: 5'-biotin; blunt

| Binder | binding result [1] | binding result [2] |
| --- | --- | --- |
| B1 | binds | – |
| B2 | – | binds |
| B3 | – | no binding |
